{"source": "patent US20080227698A1", "about": "“OLIGOPEPTIDES FOR TREATMENT OF OSTEOPOROSIS AND OTHER BONE DISEASES AND METHODS THEREOF” (Washington University, priority 2005, published 2008)", "key": {"LRP5": {"biological_target": "LRP5 (Homo sapiens, UniProt O75197)", "sequence (O75197 32-1615)": "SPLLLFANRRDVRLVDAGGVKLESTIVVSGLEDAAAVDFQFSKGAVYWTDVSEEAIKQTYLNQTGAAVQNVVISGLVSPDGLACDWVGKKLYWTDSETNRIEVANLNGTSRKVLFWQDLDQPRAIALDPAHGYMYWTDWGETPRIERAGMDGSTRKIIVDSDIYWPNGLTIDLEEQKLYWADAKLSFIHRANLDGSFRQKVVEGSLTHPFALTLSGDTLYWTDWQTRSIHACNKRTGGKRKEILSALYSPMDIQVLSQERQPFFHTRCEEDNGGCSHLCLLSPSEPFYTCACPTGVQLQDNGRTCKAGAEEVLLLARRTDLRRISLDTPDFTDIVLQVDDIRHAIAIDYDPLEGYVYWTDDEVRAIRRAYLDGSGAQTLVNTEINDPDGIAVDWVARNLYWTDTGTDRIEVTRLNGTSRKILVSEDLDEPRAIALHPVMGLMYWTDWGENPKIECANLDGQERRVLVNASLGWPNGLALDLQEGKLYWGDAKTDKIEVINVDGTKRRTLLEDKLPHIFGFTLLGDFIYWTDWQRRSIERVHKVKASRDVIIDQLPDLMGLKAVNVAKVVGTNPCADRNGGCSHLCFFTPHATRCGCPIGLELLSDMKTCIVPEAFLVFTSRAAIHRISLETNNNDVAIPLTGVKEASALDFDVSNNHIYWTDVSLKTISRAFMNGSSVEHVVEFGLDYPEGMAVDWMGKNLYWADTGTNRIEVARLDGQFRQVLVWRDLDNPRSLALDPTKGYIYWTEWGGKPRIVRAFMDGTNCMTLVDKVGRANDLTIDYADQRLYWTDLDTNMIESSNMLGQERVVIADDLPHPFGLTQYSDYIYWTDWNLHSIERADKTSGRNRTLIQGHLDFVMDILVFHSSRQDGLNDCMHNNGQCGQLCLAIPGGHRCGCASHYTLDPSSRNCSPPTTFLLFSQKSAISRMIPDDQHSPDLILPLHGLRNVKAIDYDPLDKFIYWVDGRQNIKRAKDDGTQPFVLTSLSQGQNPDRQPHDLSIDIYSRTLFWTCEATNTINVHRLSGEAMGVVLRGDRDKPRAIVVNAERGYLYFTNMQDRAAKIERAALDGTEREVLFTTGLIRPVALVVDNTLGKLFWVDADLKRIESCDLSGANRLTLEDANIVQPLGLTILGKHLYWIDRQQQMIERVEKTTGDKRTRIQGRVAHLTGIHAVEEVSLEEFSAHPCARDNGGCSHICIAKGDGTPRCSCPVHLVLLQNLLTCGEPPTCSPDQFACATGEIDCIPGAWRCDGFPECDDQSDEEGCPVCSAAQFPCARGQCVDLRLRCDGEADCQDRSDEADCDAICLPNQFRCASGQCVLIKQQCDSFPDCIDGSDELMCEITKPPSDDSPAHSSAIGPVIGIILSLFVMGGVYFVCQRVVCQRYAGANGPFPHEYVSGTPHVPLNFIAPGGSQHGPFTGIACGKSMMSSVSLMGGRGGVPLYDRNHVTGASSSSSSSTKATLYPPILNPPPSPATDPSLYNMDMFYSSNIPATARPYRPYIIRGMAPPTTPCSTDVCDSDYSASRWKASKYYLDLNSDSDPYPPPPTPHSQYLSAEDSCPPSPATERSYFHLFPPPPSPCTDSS", "experiment": "^125I-DKK1 binding to LRP5, competition by Mesd or oligopeptide (FIG. 10B)", "description": "In order to investigate the binding of Mesd polypeptide and an Mesd oligopeptide to either LRP5 or LRP6, binding assays were performed using ^125I-Mesd or ^125I-DKK1 (FIG. 10)."}, "LRP6": {"biological_target": "LRP6 (Homo sapiens, UniProt O75581)", "sequence (O75581 20-1613)": "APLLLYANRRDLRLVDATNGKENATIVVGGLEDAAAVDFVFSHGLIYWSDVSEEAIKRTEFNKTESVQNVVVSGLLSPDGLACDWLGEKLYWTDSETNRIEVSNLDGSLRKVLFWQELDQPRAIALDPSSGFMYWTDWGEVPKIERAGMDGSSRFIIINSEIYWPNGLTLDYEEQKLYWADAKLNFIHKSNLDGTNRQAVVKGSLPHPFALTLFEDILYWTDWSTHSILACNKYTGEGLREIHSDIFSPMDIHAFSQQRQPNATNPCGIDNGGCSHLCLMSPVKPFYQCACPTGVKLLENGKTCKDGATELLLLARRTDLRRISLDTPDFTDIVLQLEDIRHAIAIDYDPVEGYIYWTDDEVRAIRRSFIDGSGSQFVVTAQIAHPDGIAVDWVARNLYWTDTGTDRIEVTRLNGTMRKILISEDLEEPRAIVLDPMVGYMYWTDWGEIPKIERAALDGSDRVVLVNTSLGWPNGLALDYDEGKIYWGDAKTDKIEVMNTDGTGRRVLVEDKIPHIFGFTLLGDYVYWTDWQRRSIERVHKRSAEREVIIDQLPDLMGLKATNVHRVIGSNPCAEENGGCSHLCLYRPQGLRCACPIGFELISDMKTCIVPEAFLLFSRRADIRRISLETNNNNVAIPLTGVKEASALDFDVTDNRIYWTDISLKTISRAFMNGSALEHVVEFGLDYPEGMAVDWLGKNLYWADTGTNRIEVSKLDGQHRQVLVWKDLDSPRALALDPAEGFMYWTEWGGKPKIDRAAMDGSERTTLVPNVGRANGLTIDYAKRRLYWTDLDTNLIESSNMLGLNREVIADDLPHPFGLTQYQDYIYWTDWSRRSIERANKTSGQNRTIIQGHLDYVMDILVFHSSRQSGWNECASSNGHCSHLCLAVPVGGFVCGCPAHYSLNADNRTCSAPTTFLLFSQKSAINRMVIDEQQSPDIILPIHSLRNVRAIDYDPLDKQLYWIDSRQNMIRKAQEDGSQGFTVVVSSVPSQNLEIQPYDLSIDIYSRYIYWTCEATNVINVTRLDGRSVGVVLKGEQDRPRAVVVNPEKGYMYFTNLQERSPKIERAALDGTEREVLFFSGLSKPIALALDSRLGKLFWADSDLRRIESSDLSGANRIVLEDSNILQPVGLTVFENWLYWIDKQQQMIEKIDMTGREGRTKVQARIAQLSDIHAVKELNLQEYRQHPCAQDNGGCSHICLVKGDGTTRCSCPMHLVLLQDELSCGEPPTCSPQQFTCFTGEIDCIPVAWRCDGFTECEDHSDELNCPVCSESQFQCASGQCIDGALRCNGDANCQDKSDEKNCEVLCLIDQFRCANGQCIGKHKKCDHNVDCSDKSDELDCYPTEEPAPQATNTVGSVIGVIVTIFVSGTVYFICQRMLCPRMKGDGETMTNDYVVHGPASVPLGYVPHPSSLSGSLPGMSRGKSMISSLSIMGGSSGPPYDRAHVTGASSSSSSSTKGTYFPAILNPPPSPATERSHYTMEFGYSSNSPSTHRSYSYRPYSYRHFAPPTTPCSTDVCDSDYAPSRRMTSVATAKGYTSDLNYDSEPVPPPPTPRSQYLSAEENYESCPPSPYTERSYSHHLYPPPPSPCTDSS", "experiment": "^125I-Mesd cell surface ligand binding to LRP6-transduced HT1080 cells", "parameters": "plasmid pCS-Myc-hLRP6 containing the full-length human LRP6 cDNA; HA; expressed in transfected cells; host or cells: human HT1080 cells, stably transduced (pLNCX2 retroviral vector)", "description": "To examine whether Mesd binds with high affinity to […] at the cell surface, cell surface ligand binding experiments were performed with cells stably transduced with LRP6 cDNA. Human HT1080 cells, which express undetectable levels of LRP6, were transduced with a viral vector alone (pLNCX2) or with vector containing LRP6 cDNA (Li, Y., Oncogene 23: 9129-9135, 2004) and used for ^125I-Mesd binding (FIG. 1A). ^125I-Mesd (5 nM) reached maximal binding after 2 hours incubation at 4° C. with LRP6-expressing HT1080 cells (FIG. 1A).\n(A) Time course of ^125I-Mesd (5 nM) binding to LRP6-transduced HT1080 cells and the control cells. Assay was carried out for the indicated periods at 4° C. in the absence (total) or presence of 500 nM Mesd (non-specific). (B) Saturation binding of ^125I-Mesd to LRP6-transduced HT1080 cells and the control cells. Assay was carried out at indicated concentrations for 3 hours at 4° C. in the absence (total) or presence (non-specific) of 500 nM Mesd. (C) Scatchard plots of data in B. All values are the average of triple determinations with the s.d. indicated by error bars.\nCells (2×10^5) were seeded into 12-well dishes 1 day prior to assay. Ligand-binding buffer (minimal Eagle's medium containing 0.6% BSA with a different concentration of radioligand, 0.6 ml/well) was added to cell monolayers, in the absence or the presence of 500 nM unlabeled RAP or 500 nM unlabeled Mesd, followed with incubation for 0-4 hours at 4° C. Thereafter, overlying buffer containing unbound ligand was removed, and cell monolayers were washed and lysed in low-SDS lysis buffer (62.5 mM Tris-HCl pH 6.8, 0.2% SDS, 10% v/glycerol) and counted."}}, "data": [{"molecule": "Mesd: recombinant wild-type mouse Mesd, polyhistidine tail at the N-terminus, lacks the signal peptide, expressed in E. coli (protein, left off: small tags and cut ends, recombinant wild-type mouse Mesd, polyhistidine tail at the N-terminus, lacks the signal peptide, expressed in E. coli) ADTPGEATPPPRKKKDIRDYNDADMARLLEQWEKDDDIEEGDLPEHKRPSAPIDFSKLDPGKPESILKMTKKGKTLMMFVTVSGNPTEKETEEITSLWQGSLFNANYDVQRFIVGSDRAIFMLRDGSYAWEIKDFLVSQDRCAEVTLEGQMYPGKGGGSKEKNKTKPEKAKKKEGDRKPRASKEDNRAGSRREDL", "values": [{"measurement": "Reduction in binding of ^125I-DKK1 to LRP5", "setting": "LRP5", "value": "small but significant reduction"}, {"measurement": "Inhibition of ^125I-Mesd binding to cell surface LRP6", "setting": "LRP6; 500 nM unlabeled competitor, ^125I-Mesd 5 nM, 2 hours at 4° C.", "value": "> 90", "unit": "%"}, {"measurement": "Concentration at which Mesd specific binding saturates", "setting": "LRP6; LRP6-transduced HT1080 cells, 3 hours at 4° C.", "value": "> 6.4", "unit": "nM"}, {"measurement": "^125I-Mesd binding level", "setting": "LRP6; ^125I-Mesd 5 nM, 4 hours at 4° C., LRP6-transduced HT1080 cells", "value": 1320, "unit": "fmoles/mg cell protein"}, {"measurement": "Effect of excess unlabeled Mesd on ^125I-Mesd binding", "setting": "LRP6; unlabeled Mesd 500 nM, ^125I-Mesd 5 nM, 4° C.", "value": "completely eliminated this binding"}]}]}
